Source: patent publication US20120014941A1 (Hoffmann-La Roche, published 2012)
Like-named read-outs stand apart in the source and are kept apart here. Blank lines part the entries; values can stand above or below the binder they belong to.

How the values were obtained:
[1] = target: Cynomologus Monkey Bv8 (Genentech; PUR21590) (cynomolgus monkey); assay: SPR (BIAcore 3000, 25 C): cynomolgus monkey Bv8 coupled to CM5 chip, IgG injected; 1:1 Langmuir fit
[2] = target: T1, recombinant human Bv8 (PeproTech) (human, UniProt Q9HC23-2 28-108, biotinylated (Sulfo-NHS-LC-biotin) in the two competition ELISAs with coated antibody); assay: SPR (BIAcore 3000, 25 C): human Bv8 coupled to CM5 chip, IgG injected; 1:1 Langmuir fit
T1 construct: Bought protein; also called HuBv8; prokineticin-2
T1 sequence (looked up): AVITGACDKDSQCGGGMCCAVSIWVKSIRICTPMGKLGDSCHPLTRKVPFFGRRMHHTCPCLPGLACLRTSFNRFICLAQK
Source text: (§1) For binding affinity determinations of anti-Bv8 antibodies (Fab or IgG), Surface Plasmon Resonance (SRP) measurement with a BIAcore™-3000 instrument was used. Briefly, CM5 biosensor chip was activated with EDC and NHS reagents according to the supplier's instructions, and human Bv8 (PeproTech) or Cynomologus Monkey (Genentech; PUR21590) was coupled to achieve approximately 150 response units (RU), then following by blocking un-reacted groups with 1M ethanolamine. For kinetics measurements, two-fold serial dilutions of anti-Bv8 Fabs (0.19 nM to 25 nM) or IgGs (0.019 nM to 10 nM) were injected in HBS-P buffer (0.01M HEPES pH 7.4, 0.15M NaCl, 0.005% surfactant P20) at 25° C. with a flow rate of 30 μl/min. Association rates (kₒₙ) and dissociation rates (koff) were calculated using a simple one-to-one Langmuir binding model (BIAcore Evaluation Software version 3.2). The equilibrium dissociation constant (Kd) was calculated as the ratio koff/kₒₙ.

[3] = target: T1, recombinant human Bv8 (PeproTech); assay: competitive ELISA: antibody in serial dilution mixed with biotinylated human Bv8 (57 pM) and put on plate coated with mouse 2G9 IgG1 (m5, the competitor); streptavidin-HRP, OD 450/620; four-parameter fit
Description: Maxisorp 384 well plates were coated with 1 μg/ml parent mouse 2G9 IgG1 antibody at 25 μl/well in 50 mM sodium carbonate buffer, pH 9.6, at 4° C. overnight. Plates were washed with phosphate buffered saline (PBS) containing 0.05% polysorbate, pH 7.4 and blocked with PBS containing 0.5% BSA, 10 ppm Proclin, pH 7.4, at 80 μL1/well. After one-hour incubation at room temperature, plates were washed. A mixture of serially diluted humanized 2G9 antibodies (0.11 pM-180 nM) in PBS containing 0.5% BSA, 0.05% polysorbate 20, pH 7.4 and biotinylated human Bv8 (final concentration 0.5 ng/ml or 57 pM) were added at 25 μL1/well. After two hour incubation, plates were washed and horseradish peroxidase conjugated streptavidin (GE Healthcare) was added. After a final 30 minute incubation, plates were washed and the substrate 3,3′,5,5′-tetramethyl benzidine (Kirkegaard & Perry Laboratories) was added. The reaction was stopped by adding 1 M phosphoric acid and absorbance was read at 450 nm on a Multiskan Ascent reader (Thermo Scientific, Hudson, N.H.). For data analysis, the titration curves were fitted using a four-parameter nonlinear regression curve-fitting program and the IC₅₀ concentrations were determined (KaleidaGraph, Synergy Software, Reading, Pa.).

[4] = target: T1, recombinant human Bv8 (PeproTech); assay: SPR (BIAcore 3000, 25 C): human Bv8 coupled to CM5 chip, Fab injected; 1:1 Langmuir fit; N=3
Source text: as §1

[5] = target: T1, recombinant human Bv8 (PeproTech); assay: phage competition ELISA: Fab-displaying phage preincubated with serially diluted soluble human Bv8 (the concentration on the axis), unbound phage captured on plate-coated human Bv8, anti-M13-HRP; bound phage in %
Description: (§2) MAXISORP™ microtiter plates were coated with recombinant human Bv8 (PeproTech) at 2 μg/ml in PBS overnight and then blocked with PBST buffer (0.5% BSA and 0.05% Tween 20 in PBS) for an hour at room temperature (RT). Phage from culture supernatants were incubated with serially diluted human Bv8 in PBST buffer in a tissue-culture microtiter plate for an hour at RT, after which 80 μl of the mixture was transferred to the target-coated wells for 15 minutes to capture unbound phage. The plate was washed with PBT buffer (0.05% Tween 20 in PBS), and HRP-conjugated anti-M13 (Amersham Pharmacia Biotech) was added (1:5000 in PBST buffer) for 40 minutes. The plate was washed with PBT buffer and developed by adding tetramethylbenzidine substrate (Kirkegaard and Perry Laboratories, Gaithersburg, Md.). The absorbance at 450 nm was plotted as a function of target concentration in solution to determine phage IC₅₀.

[6] = target: T1, recombinant human Bv8 (PeproTech); assay: as above; remark: listed apart in the source
Description: as §2

[7] = target: Cynomologus Monkey Bv8 (Genentech; PUR21590) (cynomolgus monkey); assay: SPR (BIAcore 3000, 25 C): cynomolgus monkey Bv8 coupled to CM5 chip, Fab injected; 1:1 Langmuir fit
[8] = target: T1, recombinant human Bv8 (PeproTech); assay: SPR (BIAcore 3000, 25 C): human Bv8 coupled to CM5 chip, Fab injected; 1:1 Langmuir fit
Source text: as §1

[9] = target: Cynomologus Monkey Bv8 (Genentech; PUR21590) (cynomolgus monkey); assay: SPR, BIAcore-3000, Bv8 coupled to CM5 chip, IgG (FIG. 21)
[10] = target: T1, recombinant human Bv8 (PeproTech); assay: as above
Source text: as §1

[11] = target: T1, recombinant human Bv8 (PeproTech); assay: SPR (BIAcore 3000, 25 C): human Bv8 coupled to CM5 chip, IgG injected; 1:1 Langmuir fit; remark: listed apart in the source
Source text: as §1

[12] = target: Cynomologus Monkey Bv8 (Genentech; PUR21590) (cynomolgus monkey); assay: SPR (BIAcore 3000, 25 C): cynomolgus monkey Bv8 coupled to CM5 chip, IgG injected; 1:1 Langmuir fit; off-rate followed for 30 min
[13] = target: T1, recombinant human Bv8 (PeproTech); assay: SPR (BIAcore 3000, 25 C): human Bv8 coupled to CM5 chip, IgG injected; 1:1 Langmuir fit; off-rate followed for 30 min
Source text: as §1

[14] = target: T1, recombinant human Bv8 (PeproTech); assay: as above; remark: listed apart in the source
Source text: as §1

- Kd [1]: 30 pM
- koff [1]: 1.5e-05 s⁻¹
- kon [1]: 454000 M⁻¹ s⁻¹
- Kd [2]: 20 pM
- koff [2]: 1.2e-05 s⁻¹
- kon [2]: 528000 M⁻¹ s⁻¹
- IC50 [3]: 84 pM
B1: h2G9.K4G1.Polish IgG (antibody, V domains shown)
VH: EVQLVQSGAEVKKPGASVKVSCKASGYSFTDYDMHWVRQAPGQGLEWIGYISSYSGATTYNQKFKGRVTITVDKSTSTAYLELSSLRSEDTAVYYCARDSNYGEAYAMDYWGQGTLVTVSS
VL: DIVMTQSPDSLAVSLGERATINCKASQSVDYSGDSYMNWYQQKPGQPPKLLIYAASNLESGVPDRFSGSGSGTDFTLTISSLQAEDVAVYYCQQINEDPFTFGQGTKVEIK
notes: IgG; constant regions not described for the humanized antibodies; also called parental polished K4G1 molecule

- Kd [4]: 1440 pM
- koff [4]: 0.000689 s⁻¹
- kon [4]: 475000 M⁻¹ s⁻¹
- IC50 (read off the curve) [5]: ~200 pM
- IC50 (read off the curve) [6]: ~200 pM
B2: h2G9.K4G1.Polish Fab (Fab, V domains shown)
VH: EVQLVQSGAEVKKPGASVKVSCKASGYSFTDYDMHWVRQAPGQGLEWIGYISSYSGATTYNQKFKGRVTITVDKSTSTAYLELSSLRSEDTAVYYCARDSNYGEAYAMDYWGQGTLVTVSS
VL: DIVMTQSPDSLAVSLGERATINCKASQSVDYSGDSYMNWYQQKPGQPPKLLIYAASNLESGVPDRFSGSGSGTDFTLTISSLQAEDVAVYYCQQINEDPFTFGQGTKVEIK
notes: also called polished K4G1

- Kd [7]: 420 pM
- koff [7]: 0.000129 s⁻¹
- kon [7]: 310000 M⁻¹ s⁻¹
- Kd [8]: 180 pM
- koff [8]: 7.2e-05 s⁻¹
- kon [8]: 396000 M⁻¹ s⁻¹
- Kd [4]: 280 pM
- koff [4]: 0.000136 s⁻¹
- kon [4]: 484000 M⁻¹ s⁻¹
- IC50 (read off the curve) [6]: ~60 pM
B3: h2G9.K4G1.v55 Fab (Fab, V domains shown)
VH: EVQLVQSGAEVKKPGASVKVSCKASGYSFTDYDMHWVRQAPGQGLEWIGYISSYSGATTYNQKFKGRVTITVDKSTSTAYLELSSLRSEDTAVYYCARDSNYGEAYAMDYWGQGTLVTVSS
VL: DIVMTQSPDSLAVSLGERATINCKASQSLDYYHYSYMNWYQQKPGQPPKLLIYAASNRESGVPDRFSGSGSGTDFTLTISSLQAEDVAVYYCQQINEDPFTFGQGTKVEIKR
notes: Variable domains only; claims 8 and 9)

- IC50 [3]: 984 pM
B4: h2G9.K4G1 (antibody, V domains shown)
VH: EVQLVQSGAEVKKPGASVKVSCKASGYSFTDYDMHWVRQAPGQGLEWIGYISCYNGATTYNQKFKGRVTITVDKSTSTAYLELSSLRSEDTAVYYCARDGNYGEAYAMDYWGQGTLVTVSS
VL: DIVMTQSPDSLAVSLGERATINCKASQSVDYDGDSYMNWYQQKPGQPPKLLIYAASNLESGVPDRFSGSGSGTDFTLTISSLQAEDVAVYYCQQINEDPFTFGQGTKVEIK
notes: also called h2G9.K4G1 anti-Bv8 antibody

- fold tighter binding than chimeric 2G9 [9]: > 2 fold
- fold tighter binding than chimeric 2G9 [10]: ≥ 2 fold
- kon [1]: 501000 M⁻¹ s⁻¹
- kon [11]: 760000 M⁻¹ s⁻¹
- kon [2]: 760000 M⁻¹ s⁻¹
- Kd [12]: < 9 pM
- koff [12]: < 5e-06 s⁻¹
- Kd [13]: ≤ 7 pM
- koff [13]: ≤ 5e-06 s⁻¹
- Kd [14]: ≤ 7 pM
- koff [14]: ≤ 5e-06 s⁻¹
- IC50 [3]: 14 pM
B5: h2G9.K4G1.v19 IgG (antibody, V domains shown)
VH: EVQLVQSGAEVKKPGASVKVSCKASGYSLTNYDMHWVRQAPGQGLEWIGYIHSYSGSTLYNQKFKGRVTITVDKSTSTAYLELSSLRSEDTAVYYCARDSNYGEAYAMDYWGQGTLVTVSS
VL: DIVMTQSPDSLAVSLGERATINCKASQSVDYSGDSYMNWYQQKPGQPPKLLIYAASNLESGVPDRFSGSGSGTDFTLTISSLQAEDVAVYYCQQINEDPFTFGQGTKVEIKR
notes: Variable domains only; IgG, constant regions not described; claims 6 and 7); also called humanized 2G9 variant 19

- Kd [7]: 100 pM
- koff [7]: 2.8e-05 s⁻¹
- kon [7]: 267000 M⁻¹ s⁻¹
- Kd [8]: 40 pM
- koff [8]: 1.6e-05 s⁻¹
- kon [8]: 359000 M⁻¹ s⁻¹
- Kd [4]: 80 pM
- koff [4]: 3.8e-05 s⁻¹
- kon [4]: 471000 M⁻¹ s⁻¹
- IC50 (read off the curve) [5]: ~90 pM
B6: h2G9.K4G1.v19 Fab (Fab, V domains shown)
VH: EVQLVQSGAEVKKPGASVKVSCKASGYSLTNYDMHWVRQAPGQGLEWIGYIHSYSGSTLYNQKFKGRVTITVDKSTSTAYLELSSLRSEDTAVYYCARDSNYGEAYAMDYWGQGTLVTVSS
VL: DIVMTQSPDSLAVSLGERATINCKASQSVDYSGDSYMNWYQQKPGQPPKLLIYAASNLESGVPDRFSGSGSGTDFTLTISSLQAEDVAVYYCQQINEDPFTFGQGTKVEIKR
notes: Variable domains only; claims 6 and 7)

- IC50 (read off the curve) [6]: ~1000 pM
B7: h2G9.K4G1 variant CDR-L1 G29S (Fab, V domains shown)
VH: EVQLVQSGAEVKKPGASVKVSCKASGYSFTDYDMHWVRQAPGQGLEWIGYISCYNGATTYNQKFKGRVTITVDKSTSTAYLELSSLRSEDTAVYYCARDGNYGEAYAMDYWGQGTLVTVSS
VL: DIVMTQSPDSLAVSLGERATINCKASQSVDYDSDSYMNWYQQKPGQPPKLLIYAASNLESGVPDRFSGSGSGTDFTLTISSLQAEDVAVYYCQQINEDPFTFGQGTKVEIK
